# Test results as given in patent publication US12258605B2, “Alkane oxidation by modified hydroxylases” (The California Institute of Technology, priority 2005, dated 2025).
# Where a chain is given by its changes, count along the chain named. In names and notes the source's numbering stands. Read-outs that look alike come from different tables or passages of the source.
# B1: 35-E11: P450 BM-3 variant, SEQ ID NO:7: 53-5H substitutions plus E464G and I710T (protein)
# chain: TIKEMPQPKTFGELKNLPLLNTDKPVQALMKIADELGEIFKFEAPGCVTRYLSSQRLIKEACDESRFDKNLSQALKFFRDFSGDGLFTSWTHEINWKKAHNILLPSFSQQAMKGYHAMMVDIAVQLVQKWERLNADEHIEVSEDMTRLTLDTIGLCGFNYRFNSFYRDQPHPFIISMVRALDEVMNKLQRANPDDPAYDENKRQCQEDIKVMNDLVDKIIADRKARGEQSDDLLTQMLNGKDPETGEPLDDGNISYQIITFLIAGHETTSGLLSFALYFLVKNPHVLQKVVEEAARVLVDPVPSYKQVKQLKYVGMVLNEALRLWPTFPAFSLYAKEDTVLGGEYPLEKGDEVMVLIPQLHRDKTIWGDDVEEFRPERFENPSAIPQHAFKPFGNGQRACIGQQFALHEATLVLGMMLKHFDFEDHTNYELDIKETLTLKPEGFVVKAKSKKIPLGGIPSPSTGQSAKKVRKKAENAHNTPLLVLYGSNMGTAEGTARDLADIAMSKGFAPQVATLDSHAGNLPREGAVLIVTASYNGHPPDNAKQFVDWLDQASADEVKGVRYSVFGCGDKNWATTYQKVPAFIDETLAAKGAENIADRGEADASDDFEGTYEEWREHMWSDVAAYFNLDIENSEDNKSTLSLQFVDSAADMPLAKMHGAFSTNVVASKELQQPGSARSTRHLEIELPKEASYQEGDHLGVIPRNYEGTVNRVTARFGLDASQQIRLEAEEEKLAHLPLAKTVSVEELLQYVELQDPVTRTQLRAMAAKTVCPPHKVELEALLEKQAYKEQVLAKRLTMLELLEKYPACEMKFSEFIALLPSIRPRYYSISSSPRVDEKQASITVSVVSGEAWSGYGEYKGIASNYLAELQEGDTITCFISTPQSEFTLPKDPETPLIMVGPGTGVAPFRGFVQARKQLKEQGQSLGEAHLYFGCRSPHEDYLYQEELENAQSEGIITLHTAFSRMPNQPKTYVQHVMEQDGKKLIELLDQGAHFYICGDGSQMAPAVEATLMKSYADVHQVSEADARLWLQQLEEKGRYAKDVWAG
# modifications: mutant P450 35-E11 protein sequence
# B2: Wild-type BM-3: wild-type cytochrome P450 BM-3 from Bacillus megaterium, SEQ ID NO:1 (protein, listed as Bacillus megaterium)
# chain: TIKEMPQPKTFGELKNLPLLNTDKPVQALMKIADELGEIFKFEAPGRVTRYLSSQRLIKEACDESRFDKNLSQALKFVRDFAGDGLFTSWTHEKNWKKAHNILLPSFSQQAMKGYHAMMVDIAVQLVQKWERLNADEHIEVPEDMTRLTLDTIGLCGFNYRFNSFYRDQPHPFITSMVRALDEAMNKLQRANPDDPAYDENKRQFQEDIKVMNDLVDKIIADRKASGEQSDDLLTHMLNGKDPETGEPLDDENIRYQIITFLIAGHETTSGLLSFALYFLVKNPHVLQKAAEEAARVLVDPVPSYKQVKQLKYVGMVLNEALRLWPTAPAFSLYAKEDTVLGGEYPLEKGDELMVLIPQLHRDKTIWGDDVEEFRPERFENPSAIPQHAFKPFGNGQRACIGQQFALHEATLVLGMMLKHFDFEDHTNYELDIKETLTLKPEGFVVKAKSKKIPLGGIPSPSTEQSAKKVRKKAENAHNTPLLVLYGSNMGTAEGTARDLADIAMSKGFAPQVATLDSHAGNLPREGAVLIVTASYNGHPPDNAKQFVDWLDQASADEVKGVRYSVFGCGDKNWATTYQKVPAFIDETLAAKGAENIADRGEADASDDFEGTYEEWREHMWSDVAAYFNLDIENSEDNKSTLSLQFVDSAADMPLAKMHGAFSTNVVASKELQQPGSARSTRHLEIELPKEASYQEGDHLGVIPRNYEGIVNRVTARFGLDASQQIRLEAEEEKLAHLPLAKTVSVEELLQYVELQDPVTRTQLRAMAAKTVCPPHKVELEALLEKQAYKEQVLAKRLTMLELLEKYPACEMKFSEFIALLPSIRPRYYSISSSPRVDEKQASITVSVVSGEAWSGYGEYKGIASNYLAELQEGDTITCFISTPQSEFTLPKDPETPLIMVGPGTGVAPFRGFVQARKQLKEQGQSLGEAHLYFGCRSPHEDYLYQEELENAQSEGIITLHTAFSRMPNQPKTYVQHVMEQDGKKLIELLDQGAHFYICGDGSQMAPAVEATLMKSYADVHQVSEADARLWLQQLEEKGRYAKDVWAG
# B3: P450PMO: P450 BM-3 variant, SEQ ID NO:125; 7-7 plus G443A and D698G; propane monooxygenase (protein)
# chain: B1 chain with L52I, A74E, S82G, L188P, I366V, G443A, D698G
# modifications: Mutant P450PMO protein sequence
# notes: 7-7 plus G443A and D698G; propane monooxygenase
# What was measured:
# [1] = NADPH oxidation/consumption rates and coupling efficiency; assay type: biochemical
# Procedure: NADPH oxidation rates were measured over 20 s at 25° C. using a BioSpec-1601 UV-Vis spectrophotometer (Shimadzu, Columbia, MD) and 1 cm pathlength cuvettes. […] The reaction was initiated by the addition of NADPH and the decrease in absorption at 340 nm was monitored. NADPH consumption rates were also measured without substrate (see Table 2).
# The coupling efficiency is estimated from product formation rate/NADPH oxidation rate. In general, NADPH oxidation rates cannot be measured on the same time scale as ethanol formation rates.
# For the data shown in Table 6 the initial NADPH consumption rates were measured over 15 seconds at 340 nm as nmol NADPH/min/nmol protein. Octane reactions contained 100 nM P450, 166 uM NADPH, and 4 mM octane in 1% ethanol and potassium phosphate buffer. […] Errors are at most 10%. Initial rates were measured by GC over 1 minute as nmol total products/min/nmol protein. Octane reactions contained 100 nM P450, 500 uM NADPH, and 4 mM octane in 1% ethanol and potassium phosphate buffer. Propane reactions contained 1 uM P450, 500 uM NADPH, and propane-saturated potassium phosphate buffer. Coupling was determined by ratio of product formation rate to NADPH consumption rate. Total turnover numbers were determined as nmol product/nmol enzyme. Octane reactions contained 10-25 nM P450, 500 uM NADPH, and 4 mM octane in 1% ethanol and potassium phosphate buffer. Propane reactions contained 10-25 nM protein, potassium phosphate buffer saturated with propane, and an NADPH regeneration system containing 100 uM NADP+, 2 U/mL isocitrate dehydrogenase, and 10 mM isocitrate.
# For Table 13, total turnover numbers were determined as nmol product/nmol protein. […] The rates of product formation were measured by GC over 20 s as nmol total products/min/nmol protein. The reactions contained P450 (200 nM), NADPH (500 μM) and octane (2 mM) in ethanol (2%) and potassium phosphate buffer (0.1 M, pH 8.0). The rates of NADPH oxidation were measured over 20 s at 340 nm as nmol NADPH/min/nmol protein. The reactions contained P450 (200 nM), NADPH (160 μM), and octane (2 mM) in ethanol (2%) and potassium phosphate buffer (0.1 M, pH 8.0). The background NADPH oxidation rate (without substrate) rate was 220/min. The coupling efficiency is the ratio of product formation rate to NADPH oxidation rate.
# The activity of BM-3-A328V on CM and other substrates such as HME, DME, and propane was further investigated by measuring product formation rate, cofactor consumption and coupling efficiency (Table 14). This mutant was also found to be capable to hydroxylate ethane to ethanol, although only for a total of about 5-10 turnovers. In Table 14 “consumption” rates are expressed as nmol NADPH/nmol enzyme/min and “product formation” rates are expressed as nmol product/nmol enzyme/min.
# [2] = palmitate; cited from earlier work
# [3] = palmitic acid; cited from earlier work
# [4] = lauric acid; cited from earlier work
# [5] = Halomethane reactions (formaldehyde, PFBHA, GC-ECD): bromomethane; assay type: biochemical
# Procedure: Halomethane reactions: Reactions with chloromethane, bromomethane, and iodomethane were carried out in 1 mL-scale using halomethane-saturated buffer (100 mM phosphate pH 8.0) and 50-500 nM purified protein. 900 μL buffer were added with protein, incubated for 15 seconds, and then added with 100 μL NADPH regeneration solution (100 units/mL IDH, 70 mg/mL isocitrate, 1.5 mg/ml NADP+). Solution were sealed and stirred for 30 minutes at 25° C. To reduce background levels of formaldehyde to a minimum, buffers were prepared using HPLC-grade water and autoclaved twice prior to use. Formaldehyde concentration in the reaction solutions was determined through derivatization with o-(2,3,4,5,6-pentafluorobenzyl)hydroxylamine hydrochloride (PFBHA) and gas chromatography. […] Organic phase was removed, diluted 1/100 v/v, and analyzed on a Shimadzu GC-17A gas chromatograph. […] Quantification was carried out using a calibration curve and solutions at known concentration of formaldehyde. […]
# Along with activity on propane, P450PMO also hydroxylates ethane (TTN˜2,500), despite ethane's higher C—H bond energy (101.0 kcal mol^−1 versus 98.6 kcal mol^−1 for propane). […] Reactions with purified P450 variants and the halomethanes were analyzed for formaldehyde formation (FIG. 42). […] Activity on chloromethane was detected at lower levels (0.5-1% of propane activity) and in fewer P450 variants. […]
molecule,measurement,setting,value
B1,Coupling efficiency,[1]; Octane,64%
same,NADPH oxidation rate,[1]; ethane,~520 min⁻¹
same,Coupling efficiency,"[1]; ethane, product formation rate/NADPH oxidation rate",0.08%
same,NADPH oxidation rate,[1]; no substrate,390 min⁻¹
same,NADPH oxidation rate,"[1]; octane, 1% ethanol",660 min⁻¹
same,Coupling efficiency,[1]; propane,26%
same,NADPH oxidation rate,[1]; propane,800 min⁻¹
B2,Coupling efficiency,[2],93%
same,catalytic efficiency,[2],6e+07 M⁻¹ s⁻¹
same,hydroxylation at the ω-2 position,[3],48%
same,hydroxylation at the ω-1 position,[4],48%
B3,"turnover rates, halomethane dehalogenase activities","[5]; CH3Cl, CH3Br, CH3I, estimated from 30 minute-reactions",0.5-5 min^−1
same,bromomethane dehalogenase activity,[5]; formaldehyde formation,1-5 % of the propane activity
